For one test, the target named is T1, mouse TAFI (mouse, UniProt Q9JHH6 22-422).
T1 construct: also called Carboxypeptidase B2 (CPB2)
T1 sequence (looked up): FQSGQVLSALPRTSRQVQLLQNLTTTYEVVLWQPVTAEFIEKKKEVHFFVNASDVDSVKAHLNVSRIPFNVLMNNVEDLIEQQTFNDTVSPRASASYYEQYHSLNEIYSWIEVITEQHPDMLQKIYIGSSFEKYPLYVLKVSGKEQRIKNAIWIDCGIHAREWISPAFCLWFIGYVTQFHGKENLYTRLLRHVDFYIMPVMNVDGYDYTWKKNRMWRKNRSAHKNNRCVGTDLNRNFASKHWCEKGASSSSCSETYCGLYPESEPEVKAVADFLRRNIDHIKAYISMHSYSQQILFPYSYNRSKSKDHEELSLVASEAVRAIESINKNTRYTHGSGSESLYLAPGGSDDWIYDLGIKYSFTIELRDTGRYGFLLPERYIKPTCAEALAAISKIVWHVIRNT
Put plainly: sandwich ELISA: plate coated with recombinant mouse PAI-1, diabody, mouse TAFI, HRP-conjugated MA-TCK32G12. As to the method:
(§1) Db-TCK26D6x33H1F7 (0.8 mg/kg) was administered IV via tail vein injection in mice (n=6). Prior to the experiment, blood was withdrawn on 0.38% trisodium citrate (=pre-sample). Post injection, blood was withdrawn on 0.38% trisodium citrate at several time points: 5 min, 45 min, 3 hours, 6 hours and 24 hours. Diabody concentrations in corresponding plasma samples were determined by an ELISA based on the simultaneous binding of the diabody towards PAI-1 and TAFI. Wells of polystyrene microtiter plates were incubated with 200 μl recombinant mouse PAI-1 in PBS (pH 7.4; 4 μg/ml) for 72 hours at 4° C., emptied and treated for two hours with PBS supplemented with 1% (m/v) bovine serum albumin. After washing, serial two-fold dilutions (180 μl) of plasma samples were added to the wells and incubated overnight at 4° C. Then, the wells were washed and incubated with 170 μl mouse TAFI (0.1 μg/ml) for 2 hours at room temperature. Subsequently, plates were washed and 160 μl HRP-conjugated MA-TCK32G12 (directed against TAFI) was added to the wells followed by incubation for 2 hours at room temperature. All washing steps were performed with PBS containing Tween 80 (0.002%) and dilutions were made in PBS containing Tween 80 (0.002%) and bovine serum albumin (0.1% m/v). […] The absorbance was measured at 492 nm. […]
(In an ELISA, binding on a coated surface is turned into a signal by an enzyme label.)

A further test concerns the target T2, mouse PAI-1 (mouse, UniProt P22777 23-402).
T2 construct: also called recombinant mouse PAI-1
T2 sequence (looked up): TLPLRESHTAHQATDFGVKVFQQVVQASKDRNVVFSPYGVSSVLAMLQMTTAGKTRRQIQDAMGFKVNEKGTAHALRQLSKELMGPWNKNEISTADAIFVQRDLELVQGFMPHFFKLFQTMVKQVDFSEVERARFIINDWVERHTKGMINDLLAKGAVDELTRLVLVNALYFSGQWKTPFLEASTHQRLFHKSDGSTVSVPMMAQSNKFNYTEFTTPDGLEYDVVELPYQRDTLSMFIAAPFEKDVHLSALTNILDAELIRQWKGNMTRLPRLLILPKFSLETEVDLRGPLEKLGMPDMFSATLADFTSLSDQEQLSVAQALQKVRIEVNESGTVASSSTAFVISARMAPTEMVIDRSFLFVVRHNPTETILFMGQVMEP
The test is described as above. The method, then:
as §1

B1: Db-TCK26D6x33H1F7 (bispecific antibody)
chain 1: QVQLQQSGPELVKPGASVKISCKASGYTFTDNNMDWAKQSHGKSLEWIGSIYSNNGGTIYNQKFKGKATLNVDTSSSTAYMELRSLTSEDTAVYYCAREMSDGPYWFFDVWGTGTTVTVSGAKTTPKLGGDIQMTQSPSSLSASLGDRVTISCRASQDISNFLDWYQQKPDGTVKLLIYYTSRLHSGVPSRFSGSGSGTDYSLTISKLEQEDIATYFCQQGNTFPPTFGGGTKLEIKRADAAAAGSEQKLISEEDLNSHHHHHH
chain 2: QVQLQQSGAEVVKPGASVKLACTASGFNIKDTYIHWVKQGPEQGLEWIGRIDPANGNTKYDSKFQDKATITADTSSNTAYLHLSSLTSEDTAVYYCVRGDYDYVYFDYWGQGTTVTVSSAKTTPKLGGDIQMTQSPASLSVSVGETVTITCRASENIFRNLVWYQQKQGKSPQLLVYSATNLVDGVPSRFSGSGSGTQYSLKINSLQSEDFGSYYCQHFWGTPRTFGGGTKLEIKRADTAPTGSEQKLISEEDLNSHHHHHH
notes: also called diabody
Take B1: the binding result with mouse TAFI and with mouse PAI-1 was “binds” each time.

(Values after patent US20160347859A1 (KATHOLIEKE UNIVERSITEIT LEUVEN, published 2016).)
